Source: patent publication US20050014687A1

Biological target: CG57008 protein, membrane bound (HAVcr-1, Hepatitis A virus cellular receptor 1) (human)
Experiment: flow cytometry on polarized human CD4+ Th2 cells, 10 ug/ml; isotype control

- geometric mean of the fluorescence intensity: 8.4
Substance: PK16.3 isotype matched control mAb (antibody)
